Drawing on the RNAGym collection of RNA variant scans (doi:10.7554/elife.80360), this text covers self-cleavage for 167 variants.

B1: HDV Ribozyme (parent)
chain: GGCCGGCAUGGUCCCAGCCUCCUCGCUGGCGCCGGCUGGGCAACAUUCCGAGGGGACCGUCCCCUCGGUAAUGGCGAAUGGGACCCA

The variants in the series derive from B1. The series can be described thus: self-cleavage, relative activity (ratio to wild type); higher = more cleavage; co-transcriptional.
Consider C21A A70U, for which the self-cleavage is 0. Regarding C21A G28C, the self-cleavage was 0. Regarding U20C C22U, the self-cleavage was found to be 0.125.

On to C21A U69C, for which the self-cleavage was found to be 0.0426. As to U20G A70C, the self-cleavage was determined as 0.217. As to U20G G74A, the self-cleavage turned out to be 0.0923. For U20C C85U, the self-cleavage is 0.0475. Consider U20C C85A, for which the self-cleavage worked out at 0.119. As for U20G C21G, the self-cleavage was determined as 0. The same measure for U20G C21A: 0.142; for U20G A43U: 0.107. As to U20G A43C, the self-cleavage worked out at 0.256. C21A C66G: the self-cleavage stood at 0. For the variant U20C G73C, the self-cleavage is 0.135. As for U20C G73A, the self-cleavage was 0. C21A C63A: the self-cleavage came to 0.0314. As for C21A C63U, the self-cleavage came to 0.0462. As for C21A G38U, the self-cleavage amounted to 0.0665.

For the variant U20C U47C, the self-cleavage was found to be 0.262. On to U20C G82A, for which the self-cleavage worked out at 0.0462.

As to U20C G82U, the self-cleavage was 0.0449. As for C21A G54U, the self-cleavage stood at 0.0773. C21A C61A: the self-cleavage is 0.0511. Take C21A C61U: the self-cleavage worked out at 0.0963. The same measure for U20G G55A: 0.356. In the case of U20G G55C, the self-cleavage worked out at 0.0978. U20G A45U: the self-cleavage was 0.138.

U20G A45G: the self-cleavage amounted to 0.0755.

As to U20G U46G, the self-cleavage was 0. Regarding U20G A83U, the self-cleavage worked out at 0.0554. The same measure for U20A G67A: 0.0462. The same measure for U20A G67C: 0. As to U20A G67U, the self-cleavage was 0.115. For U20C C44G, the self-cleavage was 0.0692. In the case of U20C C44U, the self-cleavage turned out to be 0.

C21A C84A: the self-cleavage came out at 0.

In the case of U20A U27G, the self-cleavage turned out to be 0. On to U20G G54C, for which the self-cleavage was determined as 0.571. On to U20C G81A, for which the self-cleavage was found to be 0. As to U20C G81C, the self-cleavage came out at 0.

In the case of U20G C26G, the self-cleavage was determined as 0.196.

On to U20G C26A, for which the self-cleavage was 0.32.

Regarding U20G C48G, the self-cleavage was 0.222. On to U20G C48A, for which the self-cleavage worked out at 0.0723. For U20G C48U, the self-cleavage was 0.237. Regarding U20G G53C, the self-cleavage worked out at 0.262. Regarding U20C G38A, the self-cleavage was found to be 0. Regarding C21A G82A, the self-cleavage came out at 0.0594. With C21A G82U, the self-cleavage was 0.0297. As to C21A G82C, the self-cleavage turned out to be 0.104. In the case of U20G G80C, the self-cleavage is 0.0519. On to C21A G73C, for which the self-cleavage worked out at 0.0678. Regarding U20A U65A, the self-cleavage came to 0.0504. In the case of U20A G80U, the self-cleavage was 0.0141. Take U20A G80C: the self-cleavage stood at 0.0992. For U20A G59U, the self-cleavage is 0.222. Take U20A G59A: the self-cleavage worked out at 0.0302.

Take U20A G59C: the self-cleavage came out at 0.0475. For the variant C21A U46C, the self-cleavage came to 0.0536. The same measure for U20C C24U: 0.0475; for C21A C57U: 0.192; for C21A C57G: 0.0811. The same measure for U20G C36G: 0.151; for U20G C36U: 0.155; for U20G C85U: 0.0554. On to U20G C85A, for which the self-cleavage amounted to 0.277. For the variant U20G C85G, the self-cleavage was 0.158. As to U20A U37G, the self-cleavage amounted to 0.277. Consider U20A U37A, for which the self-cleavage was found to be 0.0831. Turning to U20C A51C, the self-cleavage was determined as 0.287.

With U20G U69A, the self-cleavage was 0.

U20G U69C: the self-cleavage amounted to 0.185. U20C G53A: the self-cleavage was 0.122. On to U20C G53U, for which the self-cleavage is 0.101. With U20G C62G, the self-cleavage came out at 0.0755.

As to U20C C64G, the self-cleavage worked out at 0.128. With U20C C64A, the self-cleavage turned out to be 0.145.

Consider U20A U60G, for which the self-cleavage is 0.128. The same measure for U20A U60C: 0. For U20G C61G, the self-cleavage amounted to 0.0536. For U20G A78C, the self-cleavage stood at 0.249. U20C G80C: the self-cleavage was 0.106. In the case of U20A G68U, the self-cleavage worked out at 0. With U20A G68A, the self-cleavage is 0.0504. As to U20C C48U, the self-cleavage is 0.0791. For U20C C48G, the self-cleavage was found to be 0.0594. Regarding U20C G40C, the self-cleavage came to 0.0396. Turning to U20C G40A, the self-cleavage was found to be 0.0941. As to U20G G67U, the self-cleavage came to 0.467. With U20G G67A, the self-cleavage stood at 0.156. With U20G G35C, the self-cleavage stood at 0. Take C21A U60G: the self-cleavage amounted to 0.138.

As to U20C C26A, the self-cleavage was 0.104.

As to U20C C26U, the self-cleavage was found to be 0.192. Regarding U20G G38C, the self-cleavage amounted to 0.0489. In the case of U20G G38A, the self-cleavage is 0.0573.

In the case of U20C C86G, the self-cleavage was determined as 0.208. The same measure for U20G C33A: 0.119. As to C21A C75A, the self-cleavage turned out to be 0. The same measure for C21A G29U: 0; for U20G U37A: 0. Turning to U20C A71G, the self-cleavage was determined as 0.0978.

Regarding U20C A71U, the self-cleavage turned out to be 0.0898.

In the case of U20G U72G, the self-cleavage was 0. U20C C62U: the self-cleavage was 0.0875. As to U20C G39U, the self-cleavage worked out at 0.0386. For C21A U65C, the self-cleavage was found to be 0.0583. On to C21A U65G, for which the self-cleavage was 0.0665. Regarding C21A U47A, the self-cleavage turned out to be 0.0462.

As for U20C C61A, the self-cleavage was determined as 0.166. On to U20C C61G, for which the self-cleavage was 0.128. As for U20G A42G, the self-cleavage came out at 0.138. For U20C G52A, the self-cleavage was determined as 0.175.

Turning to U20C G52C, the self-cleavage was found to be 0.244.

Take U20A G82U: the self-cleavage is 0.0875.

On to U20A G82C, for which the self-cleavage was 0. Regarding C21A C26A, the self-cleavage came out at 0.0739. For the variant C21A C26G, the self-cleavage was found to be 0.266. Turning to C21A C30U, the self-cleavage was found to be 0.0519. Take C21A C30G: the self-cleavage is 0.0652. For the variant C21A C30A, the self-cleavage worked out at 0.0373. C21A A77G: the self-cleavage was 0.0678.

Regarding U20C U27C, the self-cleavage turned out to be 0. The same measure for U20C U27A: 0.196; for U20C C36A: 0; for U20C G59C: 0.0898. Take U20C G59U: the self-cleavage turned out to be 0.128. Take C21A G67C: the self-cleavage turned out to be 0.137.

Turning to C21A G67U, the self-cleavage came out at 0.04. As to U20C G76C, the self-cleavage stood at 0.0773.

In the case of U20C U46C, the self-cleavage was found to be 0. The same measure for U20C U46A: 0.317; for U20A U72A: 0.107. Turning to U20A U72G, the self-cleavage came to 0. As to U20C G28C, the self-cleavage came to 0.0755. For the variant C21A G35A, the self-cleavage is 0.0804. In the case of C21A G35C, the self-cleavage came out at 0.177.

As for U20G C58A, the self-cleavage was found to be 0.266. As to U20G A87C, the self-cleavage was 0.282.

For the variant U20G A87G, the self-cleavage is 0.282.

With U20C, the self-cleavage came out at 0.129.

Consider U20G, for which the self-cleavage turned out to be 0.205. As to U20G G81U, the self-cleavage was 0. The same measure for U20G G81A: 0.108; for U20C G29C: 0.231; for U20C A43C: 0.178. For the variant U20C A43U, the self-cleavage worked out at 0.0378. For U20C A43G, the self-cleavage came out at 0.0978. The same measure for U20G G29A: 0.161; for U20G G50C: 0.138; for U20G G50U: 0.18.

C21A C44A: the self-cleavage amounted to 0.0604. For C21A C44G, the self-cleavage came to 0.0852. Take U20C C66G: the self-cleavage worked out at 0.131. U20G G39A: the self-cleavage was found to be 0.0396.

Regarding U20G G39U, the self-cleavage was determined as 0.0369. The same measure for U20G G39C: 0.175; for U20C C33A: 0.0665.

In the case of U20C C33U, the self-cleavage turned out to be 0.0536. Regarding C21A C22A, the self-cleavage was determined as 0.0898. In the case of C21A C22G, the self-cleavage worked out at 0.108. Take C21A G39C: the self-cleavage is 0.113. The same measure for C21A G39A: 0.0277; for C21A C62G: 0.138; for C21A C62U: 0.0519. The same measure for U20C U65G: 0.145; for U20C U65C: 0.401.
